Results from publication PMC10862009, “Generation of antibodies to an extracellular region of the transporters Glut1/Glut4 by immunization with a designed antigen” (The Journal of Biological Chemistry, 2024).

Columns and labels:
Fc-VHH antibody of VHH4 [1] = biological target: T1, Fc-VHH antibody of VHH4 (alpaca); assay: flow cytometry on cells; Expi293 cells transfected with Glut1 against empty vector; 1 μM Fc-VHH with Alexa Fluor 488 anti-human IgG, on ice 60 min; conditions: one partner purified
T1 construct: as the VHH of m6; form used for flow cytometry; source: ExpiCHO, transfected, purified from the supernatant (rProtein A Sepharose, SEC); not shown: Fc (Fc region of trastuzumab), C-terminal, kept

Fc-VHH antibody of VHH5 [2] = biological target: T2, Fc-VHH antibody of VHH5 (alpaca); assay: as above; conditions: one partner purified
T2 construct: as the VHH of m7; form used for flow cytometry; source: ExpiCHO, transfected, purified from the supernatant (rProtein A Sepharose, SEC); not shown: Fc (Fc region of trastuzumab), C-terminal, kept

Fc-VHH antibody of VHH4 [3] = biological target: T1, Fc-VHH antibody of VHH4; assay: flow cytometry on cells; HCT116 cells with endogenous Glut1; 1 μM Fc-VHH with Alexa Fluor 488 anti-human IgG, on ice 60 min; conditions: one partner purified
Fc-VHH antibody of VHH5 [4] = biological target: T2, Fc-VHH antibody of VHH5; assay: as above; conditions: one partner purified
Anti-Glut4 VHH = biological target: T3, Anti-Glut4 VHH (alpaca); assay: ITC; 10 uM VHH in the cell; 100 uM fusion protein (or scaffold protein Adhiron-WT) titrated, 20 injections of 2 ul at intervals of 120 s; PBS pH 7.4, 25 °C; n = 3, mean ± s.e.m.; conditions: both partners purified
T3 construct: alpaca VHH; selected by phage display from an alpaca immunized with Adhiron-Glut4; also called the VHH; anti-Glut4 VHH antibody; source: E. coli BL21(DE3), purified (Ni-NTA, SEC)
T3 sequence (VHH, as listed by the source): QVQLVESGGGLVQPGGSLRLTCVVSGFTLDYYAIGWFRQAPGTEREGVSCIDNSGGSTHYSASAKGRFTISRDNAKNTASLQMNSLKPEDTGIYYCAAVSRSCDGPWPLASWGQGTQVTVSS

[5] = biological target: T4, full-length Glut1 as a recombinant protein (Homo sapiens, UniProt P11166); assay: SPR; Biacore 8K; His-tagged Glut1 captured by anti-His antibodies on a CM5 chip; VHH injected at 123 nM-10 μM, single-cycle kinetics; 25 mM Mes-NaOH pH 6.0, 150 mM NaCl, 5% glycerol, 0.05% n-dodecyl-β-D-maltoside, 25 °C; conditions: both partners purified
T4 construct: glucose transporter 1 (Glut1), human, full length; also called glucose transporter 1; full-length Glut1 in micelles; source: High Five insect cells (baculovirus), purified (solubilised with n-dodecyl-β-D-maltopyranoside, Ni-NTA, SEC); not shown: His10, C-terminal, kept

B1: Glut1 overexpressed on Expi293 cells (natural protein, human, UniProt P11166 1-492, looked up)
chain: MEPSSKKLTGRLMLAVGGAVLGSLQFGYNTGVINAPQKVIEEFYNQTWVHRYGESILPTTLTTLWSLSVAIFSVGGMIGSFSVGLFVNRFGRRNSMLMMNLLAFVSAVLMGFSKLGKSFEMLILGRFIIGVYCGLTTGFVPMYVGEVSPTALRGALGTLHQLGIVVGILIAQVFGLDSIMGNKDLWPLLLSIIFIPALLQCIVLPFCPESPRFLLINRNEENRAKSVLKKLRGTADVTHDLQEMKEESRQMMREKKVTILELFRSPAYRQPILIAVVLQLSQQLSGINAVFYYSTSIFEKAGVQQPVYATIGSGIVNTAFTVVSLFVVERAGRRTLHLIGLAGMAGCAILMTIALALLEQLPWMSYLSIVAIFGFVAFFEVGPGPIPWFIVAELFSQGPRPAAIAVAGFSNWTSNFIVGMCFQYVEQLCGPYVFIIFTVLLVLFFIFTYFKVPETKGRTFDEIASGFRQGGASQSDKTPEELFHPLGADSQV
notes: glucose transporter 1 (Glut1), human, on the surface of transfected Expi293 cells; also called Glut1 on the cell membrane; overexpressed Glut1; source: Expi293, transfected (pcDNA 3.4), on cells
B1: binds (Fc-VHH antibody of VHH4 [1]); binds (Fc-VHH antibody of VHH5 [2]).

B2: endogenous Glut1 on HCT116 cells (natural protein, human (endogenous in HCT116), UniProt P11166 1-492, looked up)
chain: B1 chain
notes: glucose transporter 1 (Glut1), endogenous on the surface of HCT116 colon cancer cells; source: endogenous, on HCT116 cells
B2: binds (Fc-VHH antibody of VHH4 [3]); binds (Fc-VHH antibody of VHH5 [4]).

B3: Adhiron-Glut4 (other)
chain: ENSLEIEELARFAVDEHNKKENALLEFVRVVKAKEQGGGGSAPQKVIEQSYNETWLGRQGPEGPSSIPPGTLTTLWALSVGGGGSTMYYLTLEAKDGGKKKLYEAKVWVKPWENFKELQEFKPV
modifications: Limits of the Glut4 graft are not printed: 47-85 is the homologue of Glut1 35-69 (two extracellular helices). Graft site is assumed to be as in Adhiron-Glut1: loop 47VVAG50 (entity 37-40, offset 10) …
For B3, the Kd (Anti-Glut4 VHH) was 3.67 nM and the “stoichiometry N” value (Anti-Glut4 VHH) was 1.02.

B4: VHH4 with a FLAG tag (VHH)
VHH: EVQLVESGGGLVQPGGSLRLSCAASGFTLDRYAIGWFRQAPGKEREGISCISSGSGSRVYADSVKGRFTVSRDNVENTVSLEMNSLKPEDTAVYYCAAEADYYCSGYPIYRKFGSWGQGTQVTVSS
notes: as the VHH of m6; Form prepared for SPR; source: E. coli BL21(DE3), purified (DDDDK-tagged Protein Purification Gel, SEC)
B4: binds [5].

B5: VHH5 with a FLAG tag (VHH)
VHH: ELQLVESGGGLVQPGGSLRLSCAVSGVAFEDYAIGWFRQAPGKEREGVSCISSGSGSRIYTDSVKGRFTVSRDNPKNTVDLQMDSLKPEDTAVYYCAAERDYYCSGYPTYRAFSSWGEGTQVTVSS
notes: as the VHH of m7; Form prepared for SPR; source: E. coli BL21(DE3), purified (DDDDK-tagged Protein Purification Gel, SEC)
B5: binds [5].
